# Test results published in patent US20190062420A1 (Janssen / Centocor, published 2019).
# T1: human FcγRIIA (NM_021642) expressed on cells (human, UniProt P12318 36-317)
# T1 sequence: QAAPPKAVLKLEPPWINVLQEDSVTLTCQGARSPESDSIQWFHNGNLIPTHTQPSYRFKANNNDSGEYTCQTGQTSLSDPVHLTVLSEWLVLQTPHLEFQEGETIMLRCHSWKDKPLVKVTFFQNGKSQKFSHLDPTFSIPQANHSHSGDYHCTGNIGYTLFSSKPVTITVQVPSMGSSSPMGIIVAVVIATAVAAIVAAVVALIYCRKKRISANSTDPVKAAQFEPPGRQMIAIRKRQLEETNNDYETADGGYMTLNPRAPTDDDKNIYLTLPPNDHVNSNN
# T2: human OX40 expressed on HEK-Blue: OX40 cells (human, UniProt P43489 29-277)
# T2 construct: also called CD134
# T2 sequence: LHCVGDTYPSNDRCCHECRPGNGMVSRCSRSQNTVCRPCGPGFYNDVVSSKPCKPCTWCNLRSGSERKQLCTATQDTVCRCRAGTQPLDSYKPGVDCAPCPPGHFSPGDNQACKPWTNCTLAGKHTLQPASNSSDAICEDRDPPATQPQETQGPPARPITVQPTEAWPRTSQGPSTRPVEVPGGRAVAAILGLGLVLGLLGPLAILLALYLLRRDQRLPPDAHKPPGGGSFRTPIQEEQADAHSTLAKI
# T3: human FcγRIIB (NM_004001) expressed on cells (human, UniProt P31994 43-310)
# T3 construct: Transiently expressed on Expi293F cells; also called Expi293F FcγRIIB; HEK293F cells expressing FcγRIIB
# T3 sequence: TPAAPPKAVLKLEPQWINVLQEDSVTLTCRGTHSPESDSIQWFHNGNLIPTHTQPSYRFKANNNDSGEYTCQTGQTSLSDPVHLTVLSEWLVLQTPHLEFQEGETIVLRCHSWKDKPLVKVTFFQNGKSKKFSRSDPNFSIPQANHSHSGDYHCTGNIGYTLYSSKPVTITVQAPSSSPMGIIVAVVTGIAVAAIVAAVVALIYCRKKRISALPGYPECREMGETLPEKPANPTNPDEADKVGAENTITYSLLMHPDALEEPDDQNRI
# Tests used:
# [1] = molecular target: T1, human FcγRIIA (NM_021642) expressed on …; assay: cell-based or functional assay
# [2] = molecular target: T2, human OX40 expressed on HEK-Blue: OX40 …; assay: flow cytometry; HEK-Blue: OX40 cells
# Procedure: (§1) 2×10⁵ cells per well were seeded in 96-well plate and blocked in BSA Stain Buffer (BD Biosciences, San Jose, USA) for 30 min at 4° C. Cells were incubated with test mAbtyrin on ice for 1.5 h at 4° C. After being washed twice with BSA stain buffer, the cells were incubated with R-PE labeled anti-human or anti-mouse IgG secondary antibody (Jackson Immunoresearch Laboratories) for 45 min at 4° C. The cells were washed twice in stain buffer and then resuspended in 150 μL of Stain Buffer containing 1:200 diluted DRAQ7 live/dead stain (Cell Signaling Technology, Danvers, USA). PE and DRAQ7 signals of the stained cells were detected by Miltenyi MACSQuant flow cytometer (Miltenyi Biotec, Auburn, USA) using B2 and B4 channel respectively. Live cells were gated on DRAQ7 exclusion and the geometric mean fluorescence signals were determined for at least 10,000 live events collected. FlowJo software (Tree Star) was used for analysis. Data was plotted as the logarithm of antibody concentration versus mean fluorescence signals. Nonlinear regression analysis was performed by GraphPad Prism 6 (GraphPad Software, Inc.) and EC₅₀ values were calculated.
# The binding of mAbtyrins on OX40 expressed on cell surface were investigated by flow cytometry assay described for testing mAbtyrin binding to FcγR. A stable HEK-Blue reporter cell line expressing human OX40 (HEK-Blue: OX40) was established by transfection OX40 expression plasmid (pUNO1-hOX40) into HEK-Blue™ Null 1 cells engineered to express a secreted embryonic alkaline phosphatase (SEAP) reporter gene under the control of NF-κB-inducible promoter (IFN-β minimal promoter). mAbtyrins were incubated with HEK-Blue: OX40 cells and the binding was detected by flow cytometry using a PE-labeled Goat F(ab′)₂ against Human IgG(γ).
# [3] = molecular target: T3, human FcγRIIB (NM_004001) expressed on …; assay: flow cytometry; Expi293F cells transfected with FcγRIIB
# Procedure: (§2) Plasmids expressing cDNAs encoding human FcγRI (NM_000566) (SEQ ID NO: 44), FcγRIIA (NM_021642) (SEQ ID NO: 2), FcγRIIB (NM_004001) (SEQ ID NO: 3), and FcγRIIIA (NM_000569) (SEQ ID NO: 45) (Origene) were transiently transfected into Expi293F cells by ExpiFectamine293 transfection kit (Life Technologies). Flow cytometry assays were performed 48 h after transfection.
# as §1
# [4] = molecular target: T1, human FcγRIIA (NM_021642) expressed on …; assay: flow cytometry; Expi293F cells transfected with FcγRIIA
# Procedure: as §2, §1
# [5] = molecular target: T3, human FcγRIIB (NM_004001) expressed on …; assay: flow cytometry; Raji cells (express predominantly FcγRIIB)
# Procedure: as §1
# Raji cell is a cell line derived from B cells that express predominantly FcγRIIB. The binding of mAbtyrins on Raji cells were investigated by flow cytometry assay described for testing mAbtyrin binding to FcγR. Binding of the mAbtyrins were detected by flow cytometry using a PE-labeled Goat F(ab′) against Human IgG(γ).
# [6] = molecular target: T3, human FcγRIIB (NM_004001) expressed on …; assay: as above; remark: listed apart in the source
# [7] = molecular target: T3, human FcγRIIB (NM_004001) expressed on …; assay: cell-based or functional assay
Binder,"% OX40 cell killed by macrophages (ADCP, 1 µg/ml) [1] [%]",Binding to HEK-Blue: OX40 cells (mean signal at 1 µg/ml) [2] [mean fluorescence signal],EC50 [3] [µg/mL],EC50 [4] [µg/mL],Binding to Raji cells mean signals at 10 µg/ml [5] [mean fluorescence signal],EC50 [5] [µg/mL],fold binding signal over OX40SF2IgG2sigma at 10 µg/mL [6] [fold],"% activity at 1 µg/ml with Raji cells (HEK-Blue: OX40 NF-κB reporter, relative to 1 µg/ml OX40 ligand) [7] [%]",fold of agonism enhancement upon crosslinking (Raji cells) [7] [fold]
"OX40SF2IgG2sigma_R2BS9_HC-C (bispecific antibody, mAbtyrin: anti-OX40 antibody OX40SF2, effector silent IgG2sigma, with linker and R2BS9 FN3 domain at the C-terminus of the heavy chain; also called mAbtyrin) heavy: QVQLVQSGAEVKKPGSSVKVSCKASGYTFKDYTMHWVRQAPGQGLEWIGGIYPNNGGSTYNQNFKDRVTLTADKSTSTAYMELSSLRSEDTAVYYCARMGYHGPHLDFDVWGQGTTVTVSSASTKGPSVFPLAPCSRSTSESTAALGCLVKDYFPEPVTVSWNSGALTSGVHTFPAVLQSSGLYSLSSVVTVPSSNFGTQTYTCNVDHKPSNTKVDKTVERKCCVECPPCPAPPAAASSVFLFPPKPKDTLMISRTPEVTCVVVDVSAEDPEVQFNWYVDGVEVHNAKTKPREEQFNSTFRVVSVLTVLHQDWLNGKEYKCKVSNKGLPSSIEKTISKTKGQPREPQVYTLPPSREEMTKNQVSLTCLVKGFYPSDIAVEWESNGQPENNYKTTPPMLDSDGSFFLYSKLTVDKSRWQQGNVFSCSVMHEALHNHYTQKSLSLSPGKGGGGGSGGGGSGGGGSGGGGSLPAPKNLVVSRVTEDSARLSWTAPDAAFDSFWIYYLEYWRGGEAIVLTVPGSERSYDLTGLKPGTEYFVQIHGVKGGQYSYPLSAIFTT light: DIQMTQSPSSLSASVGDRVTITCKASQDVGAAVAWYQQKPGKAPKLLIYWASTRHTGVPSRFSGSGSGTDFTLTISSLQPEDFATYYCQQYINYPLTFGGGTKVEIKRTVAAPSVFIFPPSDEQLKSGTASVVCLLNNFYPREAKVQWKVDNALQSGNSQESVTEQDSKDSTYSLSSTLTLSKADYEKHKVYACEVTHQGLSSPVTKSFNRGEC",85,8900,1.51,0.498,3260,> 10,≥ 6,88.1,21
"OX40SF2IgG2sigma_R2BS12_HC-C (bispecific antibody, mAbtyrin: anti-OX40 antibody OX40SF2, effector silent IgG2sigma, with linker and R2BS12 FN3 domain at the C-terminus of the heavy chain; also called mAbtyrin) heavy: QVQLVQSGAEVKKPGSSVKVSCKASGYTFKDYTMHWVRQAPGQGLEWIGGIYPNNGGSTYNQNFKDRVTLTADKSTSTAYMELSSLRSEDTAVYYCARMGYHGPHLDFDVWGQGTTVTVSSASTKGPSVFPLAPCSRSTSESTAALGCLVKDYFPEPVTVSWNSGALTSGVHTFPAVLQSSGLYSLSSVVTVPSSNFGTQTYTCNVDHKPSNTKVDKTVERKCCVECPPCPAPPAAASSVFLFPPKPKDTLMISRTPEVTCVVVDVSAEDPEVQFNWYVDGVEVHNAKTKPREEQFNSTFRVVSVLTVLHQDWLNGKEYKCKVSNKGLPSSIEKTISKTKGQPREPQVYTLPPSREEMTKNQVSLTCLVKGFYPSDIAVEWESNGQPENNYKTTPPMLDSDGSFFLYSKLTVDKSRWQQGNVFSCSVMHEALHNHYTQKSLSLSPGKGGGGGSGGGGSGGGGSGGGGSLPAPKNLVVSRVTEDSARLSWTAPDAAFDSFLIAYAEYWEGGEAVVLTVPGSERSYDLTGLKPGTEYFVQINGVKGGFWSIPLSAIFTT light: DIQMTQSPSSLSASVGDRVTITCKASQDVGAAVAWYQQKPGKAPKLLIYWASTRHTGVPSRFSGSGSGTDFTLTISSLQPEDFATYYCQQYINYPLTFGGGTKVEIKRTVAAPSVFIFPPSDEQLKSGTASVVCLLNNFYPREAKVQWKVDNALQSGNSQESVTEQDSKDSTYSLSSTLTLSKADYEKHKVYACEVTHQGLSSPVTKSFNRGEC",92,9710,0.926,0.302,2610,> 10,≥ 6,96.3,31
"OX40SF2IgG2sigma_R2BS56_HC-C (bispecific antibody, mAbtyrin: anti-OX40 antibody OX40SF2, effector silent IgG2sigma, with linker and R2BS56 FN3 domain at the C-terminus of the heavy chain; also called mAbtyrin) heavy: QVQLVQSGAEVKKPGSSVKVSCKASGYTFKDYTMHWVRQAPGQGLEWIGGIYPNNGGSTYNQNFKDRVTLTADKSTSTAYMELSSLRSEDTAVYYCARMGYHGPHLDFDVWGQGTTVTVSSASTKGPSVFPLAPCSRSTSESTAALGCLVKDYFPEPVTVSWNSGALTSGVHTFPAVLQSSGLYSLSSVVTVPSSNFGTQTYTCNVDHKPSNTKVDKTVERKCCVECPPCPAPPAAASSVFLFPPKPKDTLMISRTPEVTCVVVDVSAEDPEVQFNWYVDGVEVHNAKTKPREEQFNSTFRVVSVLTVLHQDWLNGKEYKCKVSNKGLPSSIEKTISKTKGQPREPQVYTLPPSREEMTKNQVSLTCLVKGFYPSDIAVEWESNGQPENNYKTTPPMLDSDGSFFLYSKLTVDKSRWQQGNVFSCSVMHEALHNHYTQKSLSLSPGKGGGGGSGGGGSGGGGSGGGGSLPAPKNLVVSRVTEDSARLSWTAPDAAFDSFSIAYWEYRKGGEAIVLTVPGSERSYDLTGLKPGTEYFVLIYGVKGGWQSKPLSAIFTT light: DIQMTQSPSSLSASVGDRVTITCKASQDVGAAVAWYQQKPGKAPKLLIYWASTRHTGVPSRFSGSGSGTDFTLTISSLQPEDFATYYCQQYINYPLTFGGGTKVEIKRTVAAPSVFIFPPSDEQLKSGTASVVCLLNNFYPREAKVQWKVDNALQSGNSQESVTEQDSKDSTYSLSSTLTLSKADYEKHKVYACEVTHQGLSSPVTKSFNRGEC",91,16900,1.05,0.287,9120,9.91,≥ 6,107,15
